# Results published in patent US20030044418A1 (TEXAS A AND M UNIVERSITY SYSTEM UNIVERSITY, published 2003).
# T1: Aα chain of Fg (UniProt P02671 20-629)
# T1 construct: Chain of native Fg on a Western ligand blot
# T1 sequence: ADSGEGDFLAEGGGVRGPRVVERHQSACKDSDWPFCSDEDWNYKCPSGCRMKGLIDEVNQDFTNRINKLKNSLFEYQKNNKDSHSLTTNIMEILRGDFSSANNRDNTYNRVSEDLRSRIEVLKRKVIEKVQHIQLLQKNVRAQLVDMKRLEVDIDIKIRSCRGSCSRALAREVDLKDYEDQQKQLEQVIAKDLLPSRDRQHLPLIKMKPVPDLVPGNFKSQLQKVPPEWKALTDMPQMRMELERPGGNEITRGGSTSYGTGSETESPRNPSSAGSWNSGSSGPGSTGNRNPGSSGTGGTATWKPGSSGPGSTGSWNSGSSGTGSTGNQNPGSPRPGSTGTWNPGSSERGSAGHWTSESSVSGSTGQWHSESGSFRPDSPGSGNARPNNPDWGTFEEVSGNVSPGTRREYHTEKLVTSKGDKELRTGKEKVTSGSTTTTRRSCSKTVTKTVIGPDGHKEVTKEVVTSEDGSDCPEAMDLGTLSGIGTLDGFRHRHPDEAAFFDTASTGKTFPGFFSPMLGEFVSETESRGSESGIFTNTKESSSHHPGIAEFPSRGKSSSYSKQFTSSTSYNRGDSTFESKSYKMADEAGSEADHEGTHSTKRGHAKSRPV
# T2: thrombin digested Fg (human, UniProt P02671 36-629; P02675 45-491; P02679 27-437)
# T2 construct: Fg coated on wells and treated with 1.0 NIH unit/ml thrombin for 30 min; also called thrombin-treated Fg; Fg treated with thrombin
# T2 sequence 1: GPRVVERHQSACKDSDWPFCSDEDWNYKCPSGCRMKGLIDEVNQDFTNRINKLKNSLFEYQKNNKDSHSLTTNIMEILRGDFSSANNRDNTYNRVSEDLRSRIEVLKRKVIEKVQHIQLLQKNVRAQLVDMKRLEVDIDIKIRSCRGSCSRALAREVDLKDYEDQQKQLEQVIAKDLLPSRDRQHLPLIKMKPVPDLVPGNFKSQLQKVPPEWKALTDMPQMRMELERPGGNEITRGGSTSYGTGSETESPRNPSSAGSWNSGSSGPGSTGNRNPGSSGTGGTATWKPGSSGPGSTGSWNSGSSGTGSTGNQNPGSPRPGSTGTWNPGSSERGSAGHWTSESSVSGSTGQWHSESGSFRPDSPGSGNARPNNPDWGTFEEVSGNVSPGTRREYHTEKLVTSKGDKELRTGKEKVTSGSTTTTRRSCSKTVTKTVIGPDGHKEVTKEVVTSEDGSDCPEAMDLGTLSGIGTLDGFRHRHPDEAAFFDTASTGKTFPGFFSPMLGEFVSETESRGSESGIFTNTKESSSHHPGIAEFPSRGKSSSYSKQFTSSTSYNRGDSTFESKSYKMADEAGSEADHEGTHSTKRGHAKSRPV
# T2 sequence 2: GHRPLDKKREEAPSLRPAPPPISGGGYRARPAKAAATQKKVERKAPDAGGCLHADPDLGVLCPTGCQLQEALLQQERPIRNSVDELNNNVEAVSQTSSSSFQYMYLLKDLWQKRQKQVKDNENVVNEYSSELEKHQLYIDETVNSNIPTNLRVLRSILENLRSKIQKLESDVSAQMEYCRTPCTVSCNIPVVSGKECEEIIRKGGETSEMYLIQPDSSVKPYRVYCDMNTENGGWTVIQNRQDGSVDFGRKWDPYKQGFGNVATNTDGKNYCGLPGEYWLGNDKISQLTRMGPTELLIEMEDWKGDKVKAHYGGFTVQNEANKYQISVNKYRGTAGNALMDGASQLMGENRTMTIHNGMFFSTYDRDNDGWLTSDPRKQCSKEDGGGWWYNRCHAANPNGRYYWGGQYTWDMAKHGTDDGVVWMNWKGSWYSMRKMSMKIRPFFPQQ
# T2 sequence 3: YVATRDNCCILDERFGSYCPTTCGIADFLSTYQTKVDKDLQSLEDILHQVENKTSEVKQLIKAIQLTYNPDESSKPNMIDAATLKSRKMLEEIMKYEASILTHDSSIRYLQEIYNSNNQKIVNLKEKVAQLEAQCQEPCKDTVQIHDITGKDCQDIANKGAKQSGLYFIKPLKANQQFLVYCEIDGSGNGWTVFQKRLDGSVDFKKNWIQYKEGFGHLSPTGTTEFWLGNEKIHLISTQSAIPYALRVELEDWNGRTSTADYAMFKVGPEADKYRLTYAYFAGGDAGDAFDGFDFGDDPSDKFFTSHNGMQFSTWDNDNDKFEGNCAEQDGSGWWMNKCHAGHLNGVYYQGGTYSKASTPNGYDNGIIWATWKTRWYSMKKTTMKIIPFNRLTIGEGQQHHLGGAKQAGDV
# T3: fibrinogen (Fg) (human, UniProt P02671 20-629; P02675 31-491; P02679 27-437)
# T3 construct: Purified native Fg bought from Enzyme Research Labs, coated on microtiter wells (1 µg); also called human Fg; immobilized Fg
# T3 sequence 1: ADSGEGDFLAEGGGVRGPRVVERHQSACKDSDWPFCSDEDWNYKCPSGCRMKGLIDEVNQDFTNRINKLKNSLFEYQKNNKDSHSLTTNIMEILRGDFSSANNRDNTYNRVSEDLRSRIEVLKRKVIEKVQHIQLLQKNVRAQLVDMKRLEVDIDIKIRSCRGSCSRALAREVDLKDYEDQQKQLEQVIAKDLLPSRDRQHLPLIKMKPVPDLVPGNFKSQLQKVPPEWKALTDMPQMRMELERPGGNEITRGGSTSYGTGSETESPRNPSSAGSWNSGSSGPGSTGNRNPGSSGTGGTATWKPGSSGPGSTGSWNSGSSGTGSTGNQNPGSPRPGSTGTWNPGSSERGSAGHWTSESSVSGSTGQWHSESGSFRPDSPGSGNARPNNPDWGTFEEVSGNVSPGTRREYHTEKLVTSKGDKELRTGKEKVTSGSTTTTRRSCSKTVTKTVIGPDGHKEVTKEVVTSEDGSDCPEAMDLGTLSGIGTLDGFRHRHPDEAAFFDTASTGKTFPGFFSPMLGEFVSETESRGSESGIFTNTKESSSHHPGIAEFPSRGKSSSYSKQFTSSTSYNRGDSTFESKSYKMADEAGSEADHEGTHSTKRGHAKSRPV
# T3 sequence 2: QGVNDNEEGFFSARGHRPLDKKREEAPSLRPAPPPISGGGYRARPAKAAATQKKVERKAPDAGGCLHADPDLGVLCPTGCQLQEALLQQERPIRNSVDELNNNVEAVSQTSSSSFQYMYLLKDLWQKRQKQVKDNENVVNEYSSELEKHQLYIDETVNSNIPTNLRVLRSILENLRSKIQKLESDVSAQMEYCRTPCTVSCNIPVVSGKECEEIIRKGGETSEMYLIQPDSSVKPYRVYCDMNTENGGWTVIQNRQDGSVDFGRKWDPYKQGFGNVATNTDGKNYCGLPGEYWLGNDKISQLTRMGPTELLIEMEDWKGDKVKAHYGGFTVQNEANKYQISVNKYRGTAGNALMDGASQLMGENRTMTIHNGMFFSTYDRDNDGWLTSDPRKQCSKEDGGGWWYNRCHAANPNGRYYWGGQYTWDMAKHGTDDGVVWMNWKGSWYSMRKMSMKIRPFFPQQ
# T3 sequence 3: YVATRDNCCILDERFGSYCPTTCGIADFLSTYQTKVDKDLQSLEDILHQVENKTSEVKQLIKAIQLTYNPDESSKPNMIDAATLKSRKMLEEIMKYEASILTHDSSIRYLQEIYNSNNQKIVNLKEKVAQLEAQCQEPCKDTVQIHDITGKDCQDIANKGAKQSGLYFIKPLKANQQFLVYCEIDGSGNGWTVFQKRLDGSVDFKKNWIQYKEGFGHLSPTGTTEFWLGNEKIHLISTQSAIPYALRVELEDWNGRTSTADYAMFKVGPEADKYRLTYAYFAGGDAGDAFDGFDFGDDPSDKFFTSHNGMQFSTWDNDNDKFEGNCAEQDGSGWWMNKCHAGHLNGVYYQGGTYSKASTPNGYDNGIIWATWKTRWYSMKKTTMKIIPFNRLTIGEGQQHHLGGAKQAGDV
# T4: Fg treated with contortrixobin (human, UniProt P02671 20-629; P02675 45-491; P02679 27-437)
# T4 construct: Fg coated on wells and treated for 30 min at room temperature with contortrixobin from Agkistrodon contortrix contortrix; also called contortrixobin-treated Fg
# T4 sequence 1: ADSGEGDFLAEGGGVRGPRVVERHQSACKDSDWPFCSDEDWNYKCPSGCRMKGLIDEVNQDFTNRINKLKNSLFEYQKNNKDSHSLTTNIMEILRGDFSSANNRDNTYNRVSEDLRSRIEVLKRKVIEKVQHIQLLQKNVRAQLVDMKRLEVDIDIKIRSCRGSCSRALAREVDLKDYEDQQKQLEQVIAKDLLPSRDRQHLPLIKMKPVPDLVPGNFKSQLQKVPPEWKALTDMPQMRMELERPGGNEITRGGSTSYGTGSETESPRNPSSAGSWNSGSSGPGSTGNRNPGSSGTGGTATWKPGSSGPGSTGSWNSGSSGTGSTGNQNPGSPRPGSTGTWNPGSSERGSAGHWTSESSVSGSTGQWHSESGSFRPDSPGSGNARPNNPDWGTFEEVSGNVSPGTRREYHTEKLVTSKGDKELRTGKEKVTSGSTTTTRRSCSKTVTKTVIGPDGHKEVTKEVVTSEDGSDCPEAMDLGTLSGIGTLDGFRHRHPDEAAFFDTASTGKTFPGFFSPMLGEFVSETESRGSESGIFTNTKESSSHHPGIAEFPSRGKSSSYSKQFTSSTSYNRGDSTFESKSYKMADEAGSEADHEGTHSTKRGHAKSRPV
# T4 sequence 2: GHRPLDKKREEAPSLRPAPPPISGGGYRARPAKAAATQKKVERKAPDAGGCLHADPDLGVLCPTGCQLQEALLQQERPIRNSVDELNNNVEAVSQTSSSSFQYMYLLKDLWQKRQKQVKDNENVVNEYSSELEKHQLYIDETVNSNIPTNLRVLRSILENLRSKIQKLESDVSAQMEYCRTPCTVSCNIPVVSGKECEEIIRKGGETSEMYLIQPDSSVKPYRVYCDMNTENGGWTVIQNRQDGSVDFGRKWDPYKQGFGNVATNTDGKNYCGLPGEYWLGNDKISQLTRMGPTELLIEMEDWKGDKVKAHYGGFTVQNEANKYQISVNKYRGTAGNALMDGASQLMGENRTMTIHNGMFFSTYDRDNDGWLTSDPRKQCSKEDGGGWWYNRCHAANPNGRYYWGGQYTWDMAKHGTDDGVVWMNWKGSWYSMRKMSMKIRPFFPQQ
# T4 sequence 3: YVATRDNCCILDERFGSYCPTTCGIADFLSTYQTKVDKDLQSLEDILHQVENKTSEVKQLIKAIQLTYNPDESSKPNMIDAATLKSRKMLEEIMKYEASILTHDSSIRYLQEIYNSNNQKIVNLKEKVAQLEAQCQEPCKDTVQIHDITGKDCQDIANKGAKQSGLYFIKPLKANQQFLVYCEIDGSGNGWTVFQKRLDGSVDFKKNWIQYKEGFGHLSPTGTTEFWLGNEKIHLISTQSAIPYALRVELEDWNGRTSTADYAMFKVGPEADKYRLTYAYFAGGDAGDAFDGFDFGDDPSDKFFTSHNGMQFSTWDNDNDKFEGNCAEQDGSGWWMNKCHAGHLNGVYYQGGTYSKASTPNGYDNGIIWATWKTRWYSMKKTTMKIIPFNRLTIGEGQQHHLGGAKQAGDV
# What was measured:
# Aα chain of Fg = target: T1, Aα chain of Fg; experiment: Western ligand blot, biotin labeled rSdrG(50-597)
# thrombin digested Fg = target: T2, thrombin digested Fg; experiment: ELISA, Fg-coated wells pretreated with thrombin, biotin labeled rSdrG(50-597)
# fibrinogen (Fg) = target: T3, fibrinogen (Fg); experiment: ELISA, increasing rSdrG(50-597) on immobilized Fg, anti-His-tag detection; apparent KD
# [1] = target: T4, Fg treated with contortrixobin; experiment: ELISA of Example 2, Fg-coated wells pretreated with protease, biotin labeled rSdrG(50-597)
binder,measurement,setting,value
"rSdrG(50-597) (other, Used biotin labeled in the Western ligand blots and in the ELISAs on protease-treated Fg; also called recombinant SdrG A-region; recombinant form of the N-terminal A-region of SdrG) HHHHHHAEENTVQDVKDSNMDDELSDSNDQSSNEEKNDVINNSQSINTDDDNQIKKEETNSNDAIENRSKDITQSTTNVDENEATFLQKTPQDNTQLKEEVVKEPSSVESSNSSMDTAQQPSHTTINSEASIQTSDNEENSRVSDFANSKIIESNTESNKEENTIEQPNKVREDSITSQPSSYKNIDEKISNQDELLNLPINEYENKVRPLSTTSAQPSSKRVTVNQLAAEQGSNVNHLIKVTDQSITEGYDDSDGIIKAHDAENLIYDVTFEVDDKVKSGDTMTVNIDKNTVPSDLTDSFAIPKIKDNSGEIIATGTYDNTNKQITYTFTDYVDKYENIKAHLKLTSYIDKSKVPNNNTKLDVEYKTALSSVNKTITVEYQKPNENRTANLQSMFTNIDTKNHTVEQTIYINPLRYSAKETNVNISGNGDEGSTIIDDSTIIKVYKVGDNQNLPDSNRIYDYSEYEDVTNDDYAQLGNNNDVNINFGNIDSPYIIKVISKYDPNKDDYTTIQQTVTMQTTINEYTGEFRTASYDNTIAFSTSSGQGQGDLPPE",binding result,Aα chain of Fg,no binding
same,binding result,thrombin digested Fg,no binding (tested: 25-1000 nM)
same,Kd,fibrinogen (Fg),90 nM
same,binding result,[1],no binding (tested: 25-1000 nM)
